Measurements taken from patent publication US20080113421A1, “Stabilizing proteins against denaturation and inactivation by charged detergents using chemical modifications, including modifications that increase net charge” (President and Fellows of Harvard College, priority 2006, published 2008).

Key:
Format in all cases: physicochemical
[1] = Critical micelle concentration by isothermal titration calorimetry; conditions: 25 mM Tris-192 mM Gly, pH 8.4 buffer
Experimental: Critical micelle concentration of SDS in Tris-Gly buffer was determined as follows. The critical micelle concentration (CMC) of SDS in 25 mM Tris-192 mM Gly, pH 8.4 buffer was 4.3 mM, as measured by isothermal titration calorimetry. In this example, the kinetics of denaturation and renaturation of proteins in concentrations of SDS below the CMC were studied. The difference in kinetics of denaturation of the two proteins may also occur in concentrations of SDS above the CMC.

[2] = Net charge of protein (capillary electrophoresis, charge ladder)
Experimental: BCA-Ac18 was synthesized by reacting the lysine residues of BCA with acetic anhydride in 100 mM HEPES buffer, pH 8.2. The N-terminus of BCA was acetylated posttranslationally. The final product contained ˜90% of BCA-Ac18 and 10% of BCA-Ac17, as determined by peak areas in an electropherogram from separation by capillary electrophoresis. The net charge of BCA in Tris-Gly buffer was about −3, and the net charge of BCA-Ac18 was about −19. It is believed that the difference in charge between BCA and BCA-Ac18 was less than 18 full units of charge due to charge regulation-adjustment of protonation states of other ionizable groups on the protein to counteract the increasing electrostatic potential on its surface.
For any charge ladder of BCA, as the number of modifications (n) increases, the total charge on the protein becomes more negative, and the surface of the protein becomes more hydrophobic due to conversion of NH3^+ groups to NHCOR groups. Native BCA has a charge of ˜−2.9 at pH 8. The charge on the early rungs of the ladder increased linearly with the number of acylations; each rung adds an additional charge of ˜−0.9. Therefore, for example, BCA-Ac8 has a charge of ˜−10. The later rungs of the ladder may differ by <0.9 units of charge. Using the Linderstrom-Lang model of cooperativity in proton binding, the charge on BCA-Ac18 was calculated to be −19. The mobility of a given rung of BCA-Acn may have nearly the same mobility as the corresponding rung of BCA-Hexn. Thus, the charges of the BCA-Hexn may be indistinguishable from those of BCA-Acn for a given rung number. (Small deviations in mobility between later rungs of the two ladders may be due either to a change in charge or a change in drag between the two ladders. It can be assumed that any differences in the mobilities are due to additional drag from the hexanoyl groups relative to the acetyl groups.

[3] = Unfolding (denaturation) of protein in SDS in Tris-Gly buffer, monitored by DNSA fluorescence
Experimental: Monitoring unfolding of BCA and BCA-Ac18 was performed as follows. The proteins (200 nM) were incubated in different concentrations of SDS in Tris-Gly buffer. A 100 microliter aliquot of protein-SDS solution was mixed with 100 microliters of DNSA solution (30 micromolar) with the same concentration of SDS, and measured the intensity of fluorescence (Perkin-Elmer LS50B spectrometer, λex=280 nm, λem=460 nm) as a function of time. The denaturation of BCA was continuously monitored in concentrations of SDS above 4 mM. The rate constants were determined for denaturation by fitting the intensity vs. time data to FU=FUmaxe^−kt+FUmin. Unfolding experiments at 37° C. were performed similarly, with samples stored in a dry bath incubator (Fisher Scientific).
The kinetics of unfolding were determined as follows. The rates of denaturation of BCA and BCA-Ac18 were measured by incubating the protein (200 nM) in solutions of different concentrations of SDS. Immediately prior to the measurement, an aliquot of solution containing protein and SDS was mixed with a solution containing DNSA and the same concentration of SDS; this protocol minimized the possibility that DNSA might stabilize the native conformation of the protein, and influence the rate of its denaturation. When BCA was denatured in concentrations of SDS of 4 mM and higher, DNSA was added to the original, denaturing solution because the rate of denaturation was too fast to follow with manual mixing of aliquots of protein and DNSA. It was observed that DNSA, when present with the protein in the denaturing solution, reduced the rates of denaturation by factors of about 2-10.
FIG. 1 plots the fluorescence of DNSA, normalized to the signal at t=0, as a function of time of incubation of samples of BCA and BCA-Ac18 in various concentrations of SDS. The decrease in the intensity of fluorescence of DNSA, and thus in the amount of folded protein, followed first-order kinetics. Denaturation of proteins with surfactants probably proceeds through intermediates, but when using a marker that is specific to the folded active site of carbonic anhydrase, transitions beyond the initial unfolding of the three-dimensional structure of the protein were not detected.
The tables list the half-lives (t1/2) for denaturation of BCA and BCA-Ac18 at several concentrations of SDS. The denaturation of BCA at 4 mM occurred very rapidly, and data are not shown to avoid overlap with data at 3.5 mM. The error bars represent the difference between the average and the largest and smallest values measured from at least three replicate measurements.

[4] = Refolding of SDS-denatured protein by dilution or removal of SDS, monitored by DNSA fluorescence
Experimental: Monitoring refolding of BCA and BCA-Ac18 was performed as follows. The proteins (10 micomolar) were denatured in 10 mM SDS for 24 h. […] Refolding was initiated by dilution of an aliquot of the denatured sample to a final concentration of protein of 200 nM, with varying concentrations of SDS in the buffer. Immediately prior to the measurement, an aliquot of renaturing protein was mixed with an equal aliquot of DNSA. The rate constants for renaturation were determined by fitting the data to FU=FUmax(1-e^−kt)+FUmin. The refolding experiments at 37° C. were performed similarly.
The kinetics of refolding were determined as follows. The rates of refolding of BCA and BCA-Ac18 from the fully denatured states (in 10 mM SDS) were measured by dilution of the solutions into buffers containing concentrations of SDS from 0.1 to 2 mM, using the fluorescence of DNSA as a marker for the appearance of the folded state. […] As in denaturation studies, an aliquot of solution of the protein and SDS was mixed with an equal aliquot of solution of DNSA with the same amount of SDS immediately prior to the measurement to eliminate the possibility of DNSA influencing refolding kinetics. The buffer also contained 100 micromolar ZnSO4 to ensure that the folded protein could incorporate a Zn(II) cofactor.
The raw data emphasize the decrease in the yield of folded protein with increasing concentration of SDS. […] The half-lives (t1/2) for renaturation were determined, where possible, by fitting the data to FU=FUmax(1-exp(−t/t1/2))+FUmin; the fits are shown (solid lines). The tables provide data for refolding in 0.1 and 0.4 mM SDS as well as for concentrations on the graphs for comparison. […] The error bars represent the difference between the average and the largest and smallest values measured from at least three replicate measurements.

[5] = Refolding after 1 week incubation at intermediate SDS concentrations (aggregation test)
Experimental: Aggregation was tested by renaturing the proteins from a denatured state at 10 mM SDS to 0.1 mM SDS, but through an incubation step at intermediate concentrations of SDS, instead of renaturing by rapid dilution from 10 mM SDS to 0.1 mM SDS directly (i.e., 10 mM SDS→2.5 mM SDS→0.1 mM SDS instead of 10 mM SDS→0.1 mM SDS). For incubation, concentrations of SDS were chosen in which aggregation was believed to occur on a similar or shorter time scale as refolding. The protein-SDS complex was diluted from 10 mM SDS to 2.5-0.7 mM SDS, the proteins were incubated for 1 week at those concentrations, and the samples further diluted to 0.1 mM SDS to initiate fast refolding.
The fluorescence signal from DNSA was normalized to that of refolded protein by rapid dilution from 10 to 0.1 mM SDS.

[6] = Denaturation of BCA charge ladders in 3 mM SDS (dialysis cassette) followed by capillary electrophoresis, with transition-state model fit; conditions: for b coefficient of fit ΔG‡=a+bn+cn^2: 3 mM SDS; for Chydro (hydrophobic contribution to ΔΔG‡): per acylation
Experimental: Denaturation experiments were performed as follows. A charge ladder of BCA (BCA-Acn or BCA-Hexn, 1 mL of 100 micromolar total protein in Tris-Gly buffer) was placed in a dialysis cassette (MW cutoff of 10 kDa). The dialysis cassette was placed in a 1 L bath of 3 mM SDS in Tris-Gly buffer at room temperature. The buffer was changed every 24 h. At regular intervals of time (approximately every half-hour), 100 microliters of the protein solution was removed from the dialysis cassette; ˜7 microliters of that aliquot was diluted 10-fold and the absorbance of the diluted sample at 280 nm (ε280,BcA=57,000 M^−1 cm^−1, the absorption cross section can be assumed to be is unchanged by acylation) was measured to determine the total protein concentration. The aliquot was diluted because the absorbance of the 100 micromolar solution was too high to be read accurately by the ultraviolet spectrometer. This diluted aliquot was discarded. The remainder of the solution was then run on CE. The protein solution, except for the portion diluted for ultraviolet measurement, was returned to the dialysis cassette; the aliquot was outside of the dialysis cassette for ˜5 min.
Capillary electrophoresis experiments were carried out in a Beckman (Fullerton, Calif.) PACE-MDQ system, using a capillary of inner diameter of 50 micrometers of total length of 110.2 cm, 100 cm to the detector. Tris-Gly in D2O was used as the running buffer, and the applied voltage was 30 kV. D2O was used in place of H2O for the electrophoresis buffer because the viscosity of D2O is higher than that of H2O and the higher viscosity minimizes diffusion. Samples were injected using pressure (20 psi) for 30 s. Each sample contained 0.65 mM dimethylformamide as an electrically neutral marker for electroosmotic flow.
The CMC of SDS in the Tris-Gly buffer used in this example was 4.3 mM. 3 mM SDS was chosen for these experiments because this concentration of SDS denatured BCA in an interval of time that was convenient for experimental work using CE. In addition, this concentration of SDS was close to the concentration often used in SDS-PAGE (0.1% or 3.5 mM). 1 mL of a solution of ˜100 micromolar of a charge ladder of BCA, dissolved in Tris-Gly buffer, was placed into a dialysis cassette (molecular weight cutoff of 10 kDa) and the cassette placed in 1 L of Tris-Gly buffer containing 3 mM SDS. The bath was kept at room temperature (˜22° C.) for the duration of the experiment.
At regular intervals of time (approximately every half hour), 100-microliter aliquots of the solutions containing the charge ladder of BCA were removed from the cassette in a bath of 3 mM SDS in Tris-Gly buffer, the total protein concentration in the aliquot was measured using absorbance at 280 nm, and a portion (˜10 nL) of the aliquot injected onto the CE. The unused portions of the aliquots were then returned to the cassette.
Residence time in the detection volume was determined as follows. […] If two proteins with the same absorptivity were present in a sample in equal concentrations, the protein of lower velocity would have a larger measured peak area than the protein of higher velocity. To correct for this experimental bias, the area of each peak was multiplied-by the velocity of the protein (Acorr=Ameasured×LD/tD), where LD is the length of the capillary from the end (where injection occurs) to the detector (100 cm in all of these experiments) and tD is the time it takes for the rung to reach the detector.
Initial differences in concentrations of each rung were as follows. The areas of each of the rungs in the charge ladder were not all equal before denaturation. To measure the fraction of each rung that has denatured at each time, the velocity-corrected area of each rung in the sample was divided by the velocity-corrected area of that rung in the charge ladder run in the absence of SDS.
A comparison of the rates of denaturation follows. […]

Molecule: CCCCCCCCCCCCOS(=O)(=O)[O-].[Na+] [SDS, sodium dodecyl sulfate]
- critical micelle concentration (CMC) [1]: 4.3 mM

Molecule: BCA-Ac8: rung of the acetyl charge ladder of BCA with 8 acetylated lysines (regioisomers)
- charge of rung from number of acylations ([2]; each rung adds ~−0.9): ~−10

Molecule: BCA-Ac18: charge-modified derivative of BCA having all 18 lysine groups acetylated
- t1/2 for denaturation ([3]; 4 mM SDS, Tris-Gly buffer): 30 h
- difference in denaturation time, BCA-Ac18 vs BCA (factor) ([3]; 4 mM and 10 mM SDS): ~10^4
- t1/2 for denaturation ([3]; 10 mM SDS, Tris-Gly buffer): 2.67 h
- difference in kinetics of denaturation of BCA and BCA-Ac18 (factor) ([3]; SDS at and above 2.5 mM): 10^1-10^4
- denaturation in low concentrations of SDS ([3]; SDS below 2 mM, long (~1 month) periods of time): no denaturation was observed
- concentration of SDS at which the protein denatures ([3]; Tris-Gly buffer, CMC 4.3 mM): ≥ 2500 µM
- change in rates of denaturation with SDS, BCA vs peracetylated BCA ([3]; change in charge of the protein by a factor of 5): −3 orders of magnitude
- difference in activation energy for denaturation, BCA-Ac18 vs BCA ([3]; from the factor of about 10^4 in rates): 5 kcal/mol
- concentration of SDS at which no refolded protein was observed ([4]; dilution from 10 mM SDS): ≥ 1600 µM
- rate of refolding relative to BCA ([4]; solutions with the same concentration of SDS): faster than refolding of BCA
- range of SDS concentrations in which protein neither refolds nor unfolds at an observable rate (window) ([4]; time scales of a month): 1.6 to 2 mM
- refolding rate (given as time) after denaturation with SDS ([4]; upon complete removal of the SDS): 21 ± 2 min
- yield of refolded protein after incubation, relative to BCA ([5]; 1 week incubation at intermediate SDS, then 0.1 mM SDS): higher than the yields of BCA
- t1/2 for refolding ([5]; denatured in 10 mM SDS, incubated 1 week at intermediate SDS, diluted into 0.1 mM SDS): 0.292 ± 0.0233 h
- net charge ([2]; Tris-Gly buffer): about −19

Molecule: BCA-Acn: charge ladder of BCA prepared with acetic anhydride
- b coefficient of fit ΔG‡=a+bn+cn^2 [6]: 0.50±0.01 kcal/mol of protein
- effects of charge on denaturation with SDS relative to effects of hydrophobicity ([6]; model of charge ladder data): ~5 fold
- Chydro (hydrophobic contribution to ΔΔG‡) [6]: 0.085 kcal/mol

Molecule: BCA-Hexn: charge ladder of BCA prepared with hexanoic anhydride
- b coefficient of fit ΔG‡=a+bn+cn^2 [6]: 0.33±0.01 kcal/mol of protein
- Chydro (hydrophobic contribution to ΔΔG‡) [6]: 0.26 kcal/mol
